Source: US8415106B2, “Cell-based screen for agents useful for reducing neuronal demyelination or promoting neuronal remyelination” (Myelin Repair Foundation, Inc., priority 2005, dated 2013)
Where “and” joins values, the source holds several entries; their conditions need not be identical. Identical values can stand only once. Like-named read-outs stand apart in the source and are kept apart here.

Tests used:
Type in all cases: in vivo
[1] = test system: mice with EAE; assay: MOG 35-55-induced EAE, CNS delivery of INF-γ at EAE onset (PERK+/+ double or PERK+/− triple mice); settings: for Mean of maximum clinical score (mean ± S.D.): 0-5 point scale; for Mean of maximum clinical score (mean ± S.D.) / Day of onset of disease (PID: postimmunization day): n = 25
[2] = test system: myelinating oligodendrocytes in the CNS
Excerpt: To study the effect of INF-γ on the myelination of oligodendrocytes during mouse development, transgenic mice that allow for temporally regulated delivery of IFN-γ to the CNS using the tetracycline (tet) controllable system (Lin, et al. (2004) J. Neurosci. 24: 10074-10083) were generated. To drive tTA expression in astrocytes, the transcriptional regulatory region of the glial fibrillary acidic protein (GFAP) gene was chosen (Brenner, et al. (1994) J. Neurosci. 14: 1030-1037). GFAP/tTA mice were mated with TRE/IFN-γ mice to produce animals hemizygous for both transgenes. When these mice are maintained on doxycycline (DOX+), expression of the IFN-γ transgene is repressed (FIG. 10A); when the double transgenic mice are released from doxycycline (DOX−) INF-γ is expressed. For the purpose of these experiments, mice received doxycycline up to day 14 of development (E14), at which time the experimental animals (DOX−) stopped receiving doxycycline, while the control animals (DOX+) were continuously fed the dug. The mRNA for IFN-γ could be detected in the DOX− mice as early as 10 days after birth (data not shown).
Brain and spinal cord tissue were analyzed using immunohistochemical methods as follows. Anesthetized mice were perfused through the left cardiac ventricle with 4% paraformaldehyde in 0.1M PBS. The half-saggital brains and transcervical spinal cord were removed, postfixed with paraformaldehyde, cryopreserved in 30% sucrose, embedded in OCT and frozen on dry ice. Frozen sections were cut in a cryostat at a thickness of 10 μm. Coronal sections at the fornix region of the corpus callosum corresponding to. Sidman sections 241-251 were selected for use, and all comparative analyses were restricted to midline corpus callosum (Sidman, et al. (1971) Atlas of the Mouse Brain and Spinal Cord (Harvard Univ. Press, Cambridge, Mass.). For immunohistochemistry, frozen sections were treated with −20° C. acetone, blocked with PBS containing 10% NGS and 0.1% Triton X-100 and incubated overnight with the primary antibody diluted in blocking solution. Appropriate fluorochrome- or enzyme-labeled secondary antibodies (Vector Laboratories, Burlingame, Calif.) were used for detection. An antibody against CC1 (APC7, 1:50; EMD Biosciences, Inc., La Jolla, Calif.) was used as a marker for mature oligodendrocytes. Antibody against MBP (1:1000; Sternberger Monoclonals, Lutherville, Mass.) was used to verify the degree of myelination. Antibody against active-caspase-3 (1:50, Cell signaling Technology, Beverly, Mass.) was used as a marker for apoptotic cells. Fluorescent stained sections were mounted with Vectashield mounting medium with DAPI (Vector Laboratories) and visualized with a Zeiss Axioplan fluorescence microscope. Images were captured using a Photometrics PXL CCD camera connected to an Apple Macintosh computer using the Open Lab software suite. Immunopositive cells were quantified by counting positive cells within the median of the corpus callosum, confined to an area of 0.04 mm^2. Only those cells with nuclei observable by DAPI staining were counted. Each MBP immunostaining slide was scored on a scale of zero to four. A score of zero indicates complete demyelination, and a score of four indicates normal myelination in the corpus callosum of adult mice. […]

[3] = test system: oligodendrocytes and myelin in the corpus callosum; assay: Cuprizone remyelination in double transgenic mice on PERK+/+ or PERK+/− background; settings: for remyelinated axons: 9 weeks
Excerpt: The involvement of the ER stress response in the reduction caused by IFN-γ to remyelinate lesions was examined in transgenic mice that were generated to be heterozygous for a loss of function mutation in pancreatic ER kinase (PERK) (Harding, et al., (2001) Mol Cell 7:1153-1163), and to be temporally regulated for expressing INF-γ in the CNS. TRE/IFN-γ mice were first crossed with PERK+/− mice (Harding, et al. (2001) Mol. Cell 7: 1153-1163) on the C57BL/6 background to generate mice the carry the PERK mutation, and the resulting progeny were crossed to GFAP/tTA mice to obtain transgenic mice that were heterozygous for the PERK mutation. The effect of PERK on remyelination in the presence or absence of INF-γ was evaluated as evaluated as a function of the level of myelination of oligodendrocytes in remyelinating lesions and the number of oligodendrocytes present in the remyelinating lesion.
The extent of remyelination was assessed as described in the previous examples in the corpus callosum of PERK+/+ and PERK+/− mice that were made to express INF-γ (DOX−PERK+/+ and DOX− PERK+/−), and in mice in which the expression of INF-γ was repressed (DOX+PERK+/+ and DOX+PERK+/−). Remyelination was determined by electron microscopy, and was related to the number of CC1 positive oligodendrocytes and the level of caspase-3 expression in the corpus callosum of all animals. The level of caspase-3 was determined by immunohistochemical methods using anti capsase antibody (active-casoase-3 antibody, 1:50; Cel Signaling Technology) and according to the method described in Example 1. Demyelination was induced in six-week-old GFAP/tTA; TRE/IFN-γ double transgenic mice on a PERK+/− background that had been maintained on doxycycline, by simultaneously treating the mice with 0.2% cuprizone and releasing them from doxycycline (DOX−PERK+/−). Remyelination was allowed to occur by withdrawing cuprizone at week 6.

B1: IFN-γ: pleotropic cytokine secreted by activated T lymphocytes and natural killer cells; recombinant rat IFN-γ added to cultures or transgenically expressed in mouse CNS (protein, UniProt P01581 23-156, looked up)
Interferon gamma: QGTLIESLESLKNYFNSSSMDAMEGKSLLLDIWRNWQKDGNTKILESQIISFYLRLFEVLKDNQAISNNISVIESHLITNFFSNSKAKKDAFMSIAKFEVNNPQIQHKAVNELIRVIHQLSPESSLRKRKRSRC
Incidence of death ([1]; DOX− double mice (PERK+/+)): 0/25 | Mean of maximum clinical score (mean ± S.D.) ([1]; DOX− double mice (PERK+/+)): 1.63 ± 0.51 | Day of onset of disease (PID: postimmunization day) ([1]; DOX− double mice (PERK+/+)): 14.7 ± 1.4 | Incidence of hind limb paralysis ([1]; DOX− double mice (PERK+/+), listed as INF-γ): 2 of 25 and 2/25 | MBP mRNA level in the spinal cord versus age-matched naive mice ([1]; DOX− double mice, PID17, DOX+ double mice decreased by 30%): not significantly decreased | Incidence of death ([1]; DOX− triple mice (PERK+/−)): 3/25 | Incidence of hind limb paralysis ([1]; DOX− triple mice (PERK+/−)): 18/25 | Mean of maximum clinical score (mean ± S.D.) ([1]; DOX− triple mice (PERK+/−)): 2.71 ± 1.11 | Day of onset of disease (PID: postimmunization day) ([1]; DOX− triple mice (PERK+/−)): 13.6 ± 0.8 | unmyelinated axons in the spinal cord ([2]; 14-day-old, IFN-γ expressed, PERK+/− background, doxycycline-maintained 9.8%±6.1%): 81%±14.9% | decrease of oligodendrocyte numbers in the spinal cord ([2]; 14-day-old, IFN-γ expressing, PERK+/− background): more than 50% | unmyelinated axons in the spinal cord ([2]; 14-day-old, released from doxycycline at E14, wild-type background): 30%±12.9% | mice that died by post natal day (PND) 27 ([2]; double transgenic, released from doxycycline at E14, PERK+/− background): more than 90% | TUNEL positive oligodendrocytes in the cervical spinal cord, PERK+/− versus wild-type background ([2]; released from doxycycline at E 14): 2.5 times | remyelinated axons ([3]; DOX−PERK+/+ mice, DOX+ 54.0%±4.3%): 31.1%±7.6% | number of CC1 positive oligodendrocytes ([3]; DOX−PERK+/+ mice, week 9, DOX+PERK+/+ 283.2±27.7): 123.2±27.5 /0.04 mm^2 | remyelinated axons ([3]; DOX−PERK+/− mice, 3 weeks after cuprizone removal): 15.6%±7.6% | number of oligodendrocytes positive for caspase-3, DOX−PERK+/− versus DOX−PERK+/+ ([3]; corpus callosum, week 9): 2.3 times
